Measurements taken from patent publication US7166568B1, “Compositions and methods to inhibit formation of the C5b-9 complex of complement” (Oklahoma Medical Research Foundation, priority 1998, dated 2007).
“Also recorded” adds a separate entry of the source. Non-standard residues stand in square brackets, D forms with d. No end group written: not given here. allyl‑C = allyl-modified terminal Cys; allyl‑K = allyl-modified terminal Lys

T1: hu CD59 (Homo sapiens, UniProt P13987)
T1 construct: human erythrocyte membrane glycoprotein CD59 were purified; from tissue; host or cells: human erythrocyte membranes
T1 sequence (P13987 26-102): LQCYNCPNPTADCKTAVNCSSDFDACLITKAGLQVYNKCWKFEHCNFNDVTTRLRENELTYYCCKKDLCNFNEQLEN

T2: human erythrocyte membrane glycoprotein CD59 (purified) (human, UniProt P13987 26-102, biotinylated with NHS-LC-biotin where used as biotin-CD59)
T2 construct: Purified from human erythrocyte membranes; Used as biotin-CD59 in the microplate assay and put back into chicken erythrocytes (chE) for the hemolytic assays; it may hold a C-terminal GPI signal that the purified protein lacks; also called hu CD59; biotin-CD59
T2 sequence: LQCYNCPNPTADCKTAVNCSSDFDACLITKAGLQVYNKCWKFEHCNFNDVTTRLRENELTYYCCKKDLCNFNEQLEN

B1: hu CD59: Human CD59 antigen, 18–21 kDa plasma membrane protein, inhibitor of the C5b-9 membrane attack complex; expressed recombinantly with TAG (protein, UniProt P13987 26-102, looked up)
CD59 glycoprotein: LQCYNCPNPTADCKTAVNCSSDFDACLITKAGLQVYNKCWKFEHCNFNDVTTRLRENELTYYCCKKDLCNFNEQLEN
modifications: TAG epitope tag
B2: rb CD59: rabbit CD59 cloned by the applicant (GenBank AF040387), expressed recombinantly with TAG on SV-T2 cells (protein)
chain: EQKLISEEDLNSLMCYHCLLPSPNCSTVTNCTPNHDACLTAVSGPRVYRQCWRYEDCNFEFISNRLEENSLKYNCCRKDLCNGPEDDG
B3: Ch6: hu CD59 residues 42–58 substituted into rb CD59 (protein)
chain: EQKLISEEDLNSLMCYHCLLPSPNCSTVTNCTPNHDACLTAVSGPRVYRQCWRFEHCNFNDVTTRLRENELKYNCCRKDLCNGPEDDG
B4: Ch6R: rabbit 42–58 substituted in hu CD59 (protein)
chain: EQKLISEEDLNLQCYNCPNPTADCKTAVNCSSDFDACLITKAGLQVYNKCWKYEDCNFEFISNRLEENSLTYYCCKKDLCNFNEQLEN
B5: BSA-conjugated hu C9 peptide 359-384 (peptide)
peptide: [allyl‑K]CLGYHLDVSLAFSEISVGAEFNKDD[allyl‑C]
modifications: also: coupled to BSA
notes: Synthetic peptide, custom ordered, adsorbed to microplates as a BSA conjugate; also called BSA-peptide conjugate

System: chE containing membrane C5b-8
Experiment: Hemolytic titration of recombinant C9 constructs against chE containing membrane C5b-8
Format: cell-based, chicken
Details: not given
Experimental: Analysis of the inhibitory function of CD 59 towards recombinant C9 constructs—Hemolytic activity of each C9 construct was assayed using as target cells chE that were reconstituted with purified hu CD59, as described by Husler, et al., (1995). chE were washed extensively and suspended in GVBS, and the membrane C5b67 complex assembled by mixing cells (1.4×10^9/ml) with C5b6 (13 μg/ml) followed by addition of C7 (1 μg/ml). After 10 min., the C5b67 chE were diluted to 1.4×10^8/ml in GVBE and incubated (10 min. 37° C.) with 0 or 750 ng/ml CD59. In each case, the final concentration of Nonidet P-40 was less than 0.002% (v/v). After washing in ice-cold GVBE, 2.8×10^8 of these cells were incubated (37° C.) in a total volume of 100 μl with 1 ng rb C8 plus, between zero and 50 ng of recombinant C9, serially diluted in Opti-MEM I. Hemolysis was determined after 30 minutes at 37° C., with correction for nonspecific lysis, determined in the absence of C9. In each experiment, the inhibitory activity of CD59 towards each recombinant C9 construct was determined from the reduction in complement lysis of those cells reconstituted with CD59, versus the identically-treated cells omitting CD59, measured at the midpoint of the C9 titration (i.e., 50% hemolysis). […]

Row | Molecule | hemolytic activity of the C9 construct
1 | Mutant hu C9: recombinant hu C9 expressed with Ala substitutions at Cys359 and Cys384 | did not significantly affect

Biological target: T3, hu C5b-9 (hu C5b67 with hu C8 and hu C9) (Homo sapiens, UniProt P02748+P07357)
T3 construct: human complement proteins (C5b7, C8 and C9) and rabbit complement proteins C8 and C9 were purified; from tissue; host or cells: human serum/plasma (C8 and C9 purified; C5b67 deposited from C8-depleted human serum)
Experiment: Assay of MAC inhibitory function of recombinant CD59 on transfected SV-T2 cells, hu C8 and C9
Format: cell-based
Details: CD59 construct expressed on SV-T2 cells; hu C5b67, 2 μM hu C8 and 5 μM hu C9; BCECF dye release
Experimental: (§1) Expression of CD59 constructs in SV-T2 cells—SV-T2 cells were transfected with hu, rb, or chimeric TAG-CD59 pcDNA3 by electroporation as previously described (Zhou, Q., Zhao, J., Hüsler, T., and Sims, P. J. (1996) Mol. Immunol. 33, 1127–1134). After 48 hr, stable transfectants were selected with DMEM complete medium containing 1 mg/ml geneticin for 10 days. If episomal replication in the transfected cells was desired, 8×10^6 SV-T2 cells were transfected with 120 μg plasmid DNA by electroporation using GENE PULSE™ (Bio-rad) at 360 V and 500 μF (Zhou, Q., Zhao, J., Hüsler, T., and Sims, P. J. (1996) Mol. Immunol. 33, 1127–1134). Geneticin-selected cells were stained with mAb 9E10 against TAG epitope followed by FITC-conjugated goat antibody against mouse IgG, and sorted by flow cytometry (FACStar Plus; Becton Dickinson). Individual clones were then obtained by limiting dilution in DMEM containing 0.5 mg/ml geneticin. Comparison was made to clonal cell lines derived by transfection with pcDNA3, lacking insert (vector-only controls).
Measurement of cell surface TAG-CD59—The cell surface expression of each TAG-CD59 construct in transfected SV-T2 cells was quantified by the binding at saturation of mAb 9E10 (against TAG epitope) as previously described by Zhou, Q., Zhao, J., Hüsler, T., and Sims, P. J. (1996) Mol. Immunol. 33, 1127–1134. Following growth to near confluence, cells were detached and incubated for 30 min at 23° C. with mAb 9E10 (100 μg/ml) in HBSS containing 1% BSA. After washing with HBSS containing 1% BSA, the cells were incubated (20 min at 23° C.) with FITC conjugated goat anti-mouse IgG at a final concentration of 10 μg/ml. The fluorescence was determined by flow cytometry (FACScan, Becton Dickinson) as described previously by Zhou, Q., Zhao, J., Hüsler, T., and Sims, P. J. (1996) Mol. Immunol. 33, 1127–1134.
Assay of MAC inhibitory function—The complement-inhibitory activity of recombinant CD59 expressed on the transfected SV-T2 cells was evaluated by minor modification of methods previously described (Zhou, Q., Zhao, J., Hüsler, T., and Sims, P. J. (1996) Mol. Immunol. 33, 1127–1134, and Zhao, J., Rollins, S. A., Maher, S. E., Bothwell, A. L., and Sims, P. J. (1991) J. Biol. Chem. 266, 13418–13422). For cell clones expressing each chimeric CD59 construct, huC5b67 was deposited on the plasma membrane and susceptibility to the lytic activity of either hu C8 and C9 or rb C8 and C9 was measured and compared to identically-treated clones expressing wild-type hu or rb CD59. […] MAC-mediated cell lysis was determined from the measured release of BCECF dye from the cytoplasm, with correction for non-specific dye leak from matched controls omitting C8 and C9, as previously described by Zhou, Q., Zhao, J., Hüsler, T., and Sims, P. J. (1996) Mol. Immunol. […]

Row | Molecule | MAC-inhibitory function towards hu C5b-9 (protection from lysis)
2 | B1 | nearly completely protected from lysis by hu C5b-9
3 | B2 | virtually no inhibition of the lytic action of MAC was observed

Same assay, conditions: SV-T2 clones; hu versus rb C8 and C9 used to assemble the C5b-9 complex

Row | Molecule | species-selective complement inhibitory function compared with full-length hu or rb CD59
4 | B3 | functionally indistinguishable from native hu CD59
5 | B4 | functionally indistinguishable from rb CD59

Biological target: T1, hu CD59
Experiment: Inhibitory function of CD59 towards recombinant C9 constructs (hemolysis of C5b-8 chE with or without membrane CD59)
Format: cell-based
Details: chE with hu C5b67 and rb C8, 0 or 750 ng/ml CD59; compared with hu C9 and rb C9
Experimental: Analysis of the inhibitory function of CD 59 towards recombinant C9 constructs—Hemolytic activity of each C9 construct was assayed using as target cells chE that were reconstituted with purified hu CD59, as described by Husler, et al., (1995). chE were washed extensively and suspended in GVBS, and the membrane C5b67 complex assembled by mixing cells (1.4×10^9/ml) with C5b6 (13 μg/ml) followed by addition of C7 (1 μg/ml). After 10 min., the C5b67 chE were diluted to 1.4×10^8/ml in GVBE and incubated (10 min. 37° C.) with 0 or 750 ng/ml CD59. In each case, the final concentration of Nonidet P-40 was less than 0.002% (v/v). After washing in ice-cold GVBE, 2.8×10^8 of these cells were incubated (37° C.) in a total volume of 100 μl with 1 ng rb C8 plus, between zero and 50 ng of recombinant C9, serially diluted in Opti-MEM I. Hemolysis was determined after 30 minutes at 37° C., with correction for nonspecific lysis, determined in the absence of C9. In each experiment, the inhibitory activity of CD59 towards each recombinant C9 construct was determined from the reduction in complement lysis of those cells reconstituted with CD59, versus the identically-treated cells omitting CD59, measured at the midpoint of the C9 titration (i.e., 50% hemolysis). In order to directly compare results obtained in experiments performed on different days, data for each recombinant C9 construct were normalized to results obtained in each experiment with hu C9.

Row | Molecule | sensitivity of the C9 construct to inhibition of MAC lytic activity by membrane CD59
6 | chimera #4: hu/rb C9 chimera R1-363H359–415R425–536 | indistinguishable from hu C9
7 | chimera #5: hu/rb C9 chimera R1-363H359–391R401–536 | conferred full recognition by CD59
8 | chimera #7: hu/rb C9 chimera R1-363H359–384R394–536 | small but significant reduction in inhibition of MAC lytic activity by CD59
9 | chimera #8: hu/rb C9 chimera H1-333R339–424H416–538 | indistinguishable from rb C9 and virtually unaffected by the presence of membrane CD59; also recorded: completely eliminated hu-selective interaction with CD59
10 | chimera #3: hu/rb C9 chimera H1-357R363–536 | indistinguishable from rb C9 and only weakly inhibited by CD59
11 | chimera #1: hu/rb C9 chimera R1-338H334–415R425–536 | indistinguishable from hu C9 in its sensitivity to inhibition by CD59
12 | chimera #6: hu/rb C9 chimera R1-400H392–415R425–536 | failed to confer any recognition by CD59
13 | chimera #9: hu/rb C9 chimera H1-357R363–424H416–538 | did not completely eliminate interaction with CD59
14 | chimera #12: hu/rb C9 chimera H1-357R363–393H385–538 | did not significantly diminish CD59's capacity to inhibit the lytic activity of C9
15 | Mutant hu C9: recombinant hu C9 expressed with Ala substitutions at Cys359 and Cys384 | did not significantly affect
16 | chimera #2: hu/rb C9 chimera R1-363H359–538 | unaffected

Biological target: T4, C5b-9 assembled from rb C8 and C9 (Oryctolagus cuniculus, UniProt P48747+P98136)
T4 construct: rabbit complement proteins C8 and C9 were purified; from tissue; host or cells: rabbit serum/plasma (C8, C9); C8-depleted human serum (C5b67)
Experiment: Assay of MAC inhibitory function of recombinant CD59 on transfected SV-T2 cells, rb C8 and C9
Format: cell-based, rabbit
Details: CD59 construct expressed on SV-T2 cells; hu C5b67, 4 μM rb C8 and 5 μM rb C9; BCECF dye release
Experimental: as §1, with “Comparison was made to clonal cell lines derived by transfection with pcDNA3, lacking insert (vector-only controls).” left out
Measurement of cell surface TAG-CD59—The cell surface expression of each TAG-CD59 construct in transfected SV-T2 cells was quantified by the binding at saturation of mAb 9E10 (against TAG epitope) as previously described by Zhou, Q., Zhao, J., Hüsler, T., and Sims, P. J. (1996) Mol. Immunol. […] The fluorescence was determined by flow cytometry (FACScan, Becton Dickinson) as described previously by Zhou, Q., Zhao, J., Hüsler, T., and Sims, P. J. (1996) Mol. Immunol. […]

Row | Molecule | MAC-inhibitory function towards C5b-9 assembled with rb C8 and C9 (protection from lysis)
17 | B1 | protective effect of hu CD59 was not observed
18 | B2 | conferred a selective resistance to lysis by C5b-9 assembled from rb C8 and C9

Biological target: T2, human erythrocyte membrane glycoprotein …
Experiment: microplate assay: BSA-peptide coated wells, biotin-CD59 detected with Vectastain, OD 405 nm; corrected with a 20-fold excess of unlabeled CD59
Details: not given
Experimental: Briefly, the BSA-peptide conjugate was adsorbed to 96 well polyvinyl microplates by overnight coating at 5 µg/ml in 0.1 M sodium bicarbonate, pH 8.5. After blocking with 1% (w/v) BSA, wells were washed and incubated (4 hrs., 37° C.) with between 0.5 and 1 µg/ml biotin-CD59. After washing, the bound biotin-CD59 was detected with Vectastain (Vector Labs, Burlingame, Calif.), developed by addition of p-nitrophenyl phosphate (2 mg/ml) and optical density recorded at 405 nm (VMaxMicroplate Reader, Molecular Devices, Inc.). In all experiments, correction was made for background adsorption of biotin-CD59 to BSA-coated wells (no peptide) and for nonspecific binding of biotin-CD59 to peptide, determined in the presence of a 20-fold excess of unlabeled CD59. As a positive control for specific binding, comparison was made in each experiment to wells coated with 2 µg/ml hu C9.

Row | Molecule | binding result
19 | B5 | binds
